Residue numbers refer to the chain shown, from its start. Names may count otherwise.
T1: human FAP (human, UniProt Q12884 1-760)
T1 construct: whole, on cells; also called CHO/FAP; Flp-In CHO/FAP
T1 sequence (looked up): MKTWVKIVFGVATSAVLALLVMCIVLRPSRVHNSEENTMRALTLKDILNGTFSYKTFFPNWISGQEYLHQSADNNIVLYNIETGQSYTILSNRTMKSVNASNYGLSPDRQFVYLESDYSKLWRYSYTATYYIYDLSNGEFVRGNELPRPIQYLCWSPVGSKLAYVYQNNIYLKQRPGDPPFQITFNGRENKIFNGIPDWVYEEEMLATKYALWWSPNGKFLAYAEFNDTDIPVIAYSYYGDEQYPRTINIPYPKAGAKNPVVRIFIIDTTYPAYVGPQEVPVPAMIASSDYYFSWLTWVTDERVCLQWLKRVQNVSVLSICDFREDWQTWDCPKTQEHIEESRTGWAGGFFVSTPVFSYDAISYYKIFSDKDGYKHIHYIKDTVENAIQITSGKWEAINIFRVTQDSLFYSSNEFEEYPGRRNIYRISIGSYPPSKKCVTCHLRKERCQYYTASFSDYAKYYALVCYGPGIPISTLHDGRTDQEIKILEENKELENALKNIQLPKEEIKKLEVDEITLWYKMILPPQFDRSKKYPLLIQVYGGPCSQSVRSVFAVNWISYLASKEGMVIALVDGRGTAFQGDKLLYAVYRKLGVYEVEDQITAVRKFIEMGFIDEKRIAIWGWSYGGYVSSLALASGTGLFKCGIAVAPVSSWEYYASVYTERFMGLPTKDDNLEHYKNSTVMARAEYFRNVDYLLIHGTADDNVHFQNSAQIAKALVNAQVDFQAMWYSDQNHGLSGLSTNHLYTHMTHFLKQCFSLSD

B1: ERP2006-BS0012 (bispecific antibody, human IgG1, kappa, lambda)
heavy: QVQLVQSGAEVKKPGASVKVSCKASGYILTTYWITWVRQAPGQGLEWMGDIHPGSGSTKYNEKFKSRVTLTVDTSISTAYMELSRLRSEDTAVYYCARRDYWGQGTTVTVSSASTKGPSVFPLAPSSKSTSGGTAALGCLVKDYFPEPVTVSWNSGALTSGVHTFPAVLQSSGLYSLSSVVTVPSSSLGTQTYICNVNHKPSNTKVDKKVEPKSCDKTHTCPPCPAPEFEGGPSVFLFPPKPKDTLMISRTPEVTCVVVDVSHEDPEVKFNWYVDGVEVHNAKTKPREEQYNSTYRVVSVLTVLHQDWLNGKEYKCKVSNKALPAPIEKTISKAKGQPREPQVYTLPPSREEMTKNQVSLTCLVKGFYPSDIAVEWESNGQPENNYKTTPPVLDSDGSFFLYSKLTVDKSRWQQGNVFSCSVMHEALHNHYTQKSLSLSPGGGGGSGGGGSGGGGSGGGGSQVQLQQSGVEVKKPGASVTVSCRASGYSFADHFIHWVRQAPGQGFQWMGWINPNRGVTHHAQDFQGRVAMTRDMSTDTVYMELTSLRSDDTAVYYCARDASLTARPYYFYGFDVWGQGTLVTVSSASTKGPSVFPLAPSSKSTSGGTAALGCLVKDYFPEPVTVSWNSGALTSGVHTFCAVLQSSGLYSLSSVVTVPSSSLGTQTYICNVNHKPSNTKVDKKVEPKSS
light 1: DIVMTQSPLSLPVTPGEPASISCRSSQNIVNSQGNTYLEWYLQKPGQSPQLLIYKVTNRFSGVPDRFSGSGSGTDFTLKISRVEAEDVGVYYCFQASLVPWTFGGGTKVEIKRTVAAPSVFIFPPSDEQLKSGTASVVCLLNNFYPREAKVQWKVDNALQSGNSQESVTEQDSKDSTYSLSSTLTLSKADYEKHKVYACEVTHQGLSSPVTKSFNRGEC
light 2: DIQMTQSPSSVSASVGDRVTITCRASQGISSWLAWYQQKPGKAPKLLIYAASSLQSGVPSRFSGSGSGTDFTLTISSLQPEDFATYYCQQANSFPPAFGQGTKVEIKGQPKAAPSVTLFPPSSEELQANKATLVCLISDFYPGAVTVAWKADSSPVKAGVETTTPCKQSNNKYAASSYLSLTPEQWKSHRSYSCQVTHEGSTVEKTVAPTESS
notes: 2+2 symmetric bispecific: [CD40 VH-CH1]-Fc-linker-[FAP VH-CH1] heavy chain with two kinds of light chain; also called FAP×CD40 bispecific antibody
B2: parent FAP monoclonal antibody Ab10 (antibody, V domains shown)
VH: QVQLQQSGVEVKKPGASVTVSCRASGYSFADHFIHWVRQAPGQGFQWMGWINPNRGVTHHAQDFQGRVAMTRDMSTDTVYMELTSLRSDDTAVYYCARDASLTARPYYFYGFDVWGQGTLVTVSS
VL: DIQMTQSPSSVSASVGDRVTITCRASQGISSWLAWYQQKPGKAPKLLIYAASSLQSGVPSRFSGSGSGTDFTLTISSLQPEDFATYYCQQANSFPPAFGQGTKVEIK
notes: also called AblO
B3: ERP2006-BS0015 (bispecific antibody)
heavy: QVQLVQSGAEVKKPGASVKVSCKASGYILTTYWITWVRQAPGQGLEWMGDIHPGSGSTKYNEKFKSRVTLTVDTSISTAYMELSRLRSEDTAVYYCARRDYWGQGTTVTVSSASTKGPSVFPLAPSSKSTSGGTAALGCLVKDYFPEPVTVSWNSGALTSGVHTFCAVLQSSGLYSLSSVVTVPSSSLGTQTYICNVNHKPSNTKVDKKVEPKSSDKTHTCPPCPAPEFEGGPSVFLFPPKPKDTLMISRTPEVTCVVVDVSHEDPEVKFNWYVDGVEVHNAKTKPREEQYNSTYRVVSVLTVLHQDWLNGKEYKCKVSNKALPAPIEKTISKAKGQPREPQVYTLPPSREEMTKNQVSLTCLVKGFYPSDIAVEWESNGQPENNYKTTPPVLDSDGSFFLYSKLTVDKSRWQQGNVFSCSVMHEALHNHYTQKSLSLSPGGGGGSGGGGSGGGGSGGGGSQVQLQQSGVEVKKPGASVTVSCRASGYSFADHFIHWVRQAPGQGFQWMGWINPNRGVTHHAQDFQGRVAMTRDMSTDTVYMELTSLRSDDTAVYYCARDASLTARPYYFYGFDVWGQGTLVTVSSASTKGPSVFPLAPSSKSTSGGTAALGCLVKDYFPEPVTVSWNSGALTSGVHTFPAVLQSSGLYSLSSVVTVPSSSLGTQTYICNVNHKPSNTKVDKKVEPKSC
light 1: DIVMTQSPLSLPVTPGEPASISCRSSQNIVNSQGNTYLEWYLQKPGQSPQLLIYKVTNRFSGVPDRFSGSGSGTDFTLKISRVEAEDVGVYYCFQASLVPWTFGGGTKVEIKGQPKAAPSVTLFPPSSEELQANKATLVCLISDFYPGAVTVAWKADSSPVKAGVETTTPCKQSNNKYAASSYLSLTPEQWKSHRSYSCQVTHEGSTVEKTVAPTESS
light 2: DIQMTQSPSSVSASVGDRVTITCRASQGISSWLAWYQQKPGKAPKLLIYAASSLQSGVPSRFSGSGSGTDFTLTISSLQPEDFATYYCQQANSFPPAFGQGTKVEIKRTVAAPSVFIFPPSDEQLKSGTASVVCLLNNFYPREAKVQWKVDNALQSGNSQESVTEQDSKDSTYSLSSTLTLSKADYEKHKVYACEVTHQGLSSPVTKSFNRGEC
notes: as for B1
B4: TJ030-PR1102 (bispecific antibody, human IgG1, kappa, L234A L235A)
heavy 1: not shown
light 1: B1 light 1 with S7T, N28S, I29L, N31H, Q33T, T57S, A96G, L98H, W101Y
heavy 2: not shown
light 2: not shown
notes: 1+1 asymmetric knob-into-hole bispecific IgG1; knob on the PD-1 arm, hole on the CTLA-4 arm; tested after polishing purification; also called PD-1×CTLA-4 bispecific antibody (F126C-S121C placed into the CTLA-4 arm)
B5: TJ030-PR1104 (bispecific antibody, human IgG1, kappa, L234A L235A)
heavy 1: not shown
light 1: B1 light 1 with S7T, N28S, I29L, N31H, Q33T, T57S, A96G, L98H, W101Y
heavy 2: not shown
light 2: not shown
notes: 1+1 asymmetric knob-into-hole bispecific IgG1; knob on the PD-1 arm, hole on the CTLA-4 arm; tested after polishing purification; also called PD-1×CTLA-4 bispecific antibody (F170C-T164C placed into the CTLA-4 arm)
B6: TJ030-PR1106 (bispecific antibody, human IgG1, kappa, L234A L235A)
heavy 1: not shown
light 1: DIVMTQTPLSLPVTPGEPASISCRSSQSLVHSTGNTYLEWYLQKPGQSPQLLIYKVSNRFSGVPDRFSGSGSGTDFTLKISRVEAEDVGVYYCFQGSHVPYTFGGGTKVEIKRTVAAPSVFIFPPCDEQLKSGTASVVCLLNNFYPREAKVQWKVDNALQSGNSQESVTEQDSKDSTYSLSSTLTLSKADYEKHKVYACEVTHQGLSSPVTKSFNRGEA
heavy 2: not shown
light 2: not shown
notes: 1+1 asymmetric knob-into-hole bispecific IgG1; knob on the PD-1 arm, hole on the CTLA-4 arm; tested after polishing purification; also called PD-1×CTLA-4 bispecific antibody (F126C-S121C placed into the PD-1 arm)
B7: TJ030-PR1108 (bispecific antibody, human IgG1, kappa, L234A L235A)
heavy 1: not shown
light 1: B6 light 1 with C126S, T169C
heavy 2: not shown
light 2: not shown
notes: 1+1 asymmetric knob-into-hole bispecific IgG1; knob on the PD-1 arm, hole on the CTLA-4 arm; tested after polishing purification; also called PD-1×CTLA-4 bispecific antibody (F170C-T164C placed into the PD-1 arm)

What follows are binders tested against T1, human FAP (assay: FACS binding to CHO/FAP cells).
Protocol: (§1) CHO cells stably expressing human FAP (i.e., CHO/FAP cells) and HEK293 cells 48 hours after transient transfection (i.e., HEK293/CD40 cells) in the logarithmic growth phase were collected by centrifugation, washed with PBS and then centrifuged. The cells were plated at 2E5 cells/100 μL/well and centrifuged at 400 g for 5 min Different concentrations of test antibody were added. The cells were incubated on ice for 1 h, washed with PBS and centrifuged at 400 g for 5 min The goat anti-human secondary antibody Alexa Fluor 488 with a fluorophore was added, and the cells were stained in an ice bath for 1 h, washed twice with PBS and then assayed on a flow cytometer.
(§2) The bispecific antibodies ERP2006-BS0012 and ERP2006-BS0015 have similar affinity for FAP to the parent FAP monoclonal antibody AblO and similar affinity for CD40 to the parent CD40 monoclonal antibody 9E5-25.

Binder	EC50 [nM]	binding result
B1	0.349	–
B2	–	binds
B3	0.336	–

These binders were tested against T2, human CD40 (human, UniProt P25942 21-277) (assay: FACS binding to HEK293/CD40 cells).
T2 construct: whole, on cells; also called HEK293/CD40; HEK-Blue CD40L cell
T2 sequence (P25942 21-277): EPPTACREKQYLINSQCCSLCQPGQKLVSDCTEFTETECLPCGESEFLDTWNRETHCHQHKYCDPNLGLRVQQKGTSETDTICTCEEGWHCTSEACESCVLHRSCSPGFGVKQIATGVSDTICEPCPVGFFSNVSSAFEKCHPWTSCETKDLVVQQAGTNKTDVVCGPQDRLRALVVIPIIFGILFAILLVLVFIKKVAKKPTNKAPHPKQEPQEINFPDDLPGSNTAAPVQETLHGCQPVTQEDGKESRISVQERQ
Protocol: as §1, §2

Binder	EC50 [nM]
B1	0.471
B3	0.456

Each binder was assayed against T3, human PD-1 (human, UniProt Q15116 25-288) (assay: flow cytometry cell cross-linking (CHO-K1/PD-1 + HEK293/CTLA-4 cells), antibody at 1 nM).
T3 construct: whole, on cells; also called CHO-K1/PD-1
T3 sequence (Q15116 25-288): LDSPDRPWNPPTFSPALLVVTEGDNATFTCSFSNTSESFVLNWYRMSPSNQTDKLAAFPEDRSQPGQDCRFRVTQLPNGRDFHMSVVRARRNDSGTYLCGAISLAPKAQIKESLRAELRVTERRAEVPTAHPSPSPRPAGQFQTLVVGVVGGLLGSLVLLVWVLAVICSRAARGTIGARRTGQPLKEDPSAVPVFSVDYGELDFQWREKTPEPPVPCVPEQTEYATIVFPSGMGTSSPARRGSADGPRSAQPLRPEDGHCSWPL
Protocol: (§3) The ability of PD-1×CTLA-4 bispecific antibodies to co-bind to cells highly expressing human PD-1 and human CTLA-4 after polishing purification was determined by flow cytometry. First, HEK293 cells were transiently transfected with human CTLA-4 plasmids, and 24 h after the transfection, the HEK293 cells highly expressing CTLA-4 were labeled with Cell Trace Far red (Invitrogen, C34564), and the CHO-K1/PD-1 stably transfected strain was labeled with Cell Trace Violet (Invitrogen, C34557). The cells were added to a 96-well U-bottom plate (Costar, 3599) at 2E5 cells/well, and the test antibody was diluted to 100 nM, 10 nM, 1 nM, 0.1 nM and 0.01 nM and added to the 96-well U-bottom plate at 50 μL/well, making a total volume of 150 μL/well. The plate was incubated at 4° C. in a dark place for 1 h. The double-positive cell percentage of HEK293/CTLA-4 of CTLA-4 and CHO-K1/PD-1 was determined by flow cytometry.
(§4) According to Example 1.4, the ability of each of the PD-1×CTLA-4 bispecific antibodies TJ030-PR1102 (F126C-S121C was placed into the CTLA-4 arm), TJ030-PR1104 (F170C-T164C was placed into the CTLA-4 arm), TJ030-PR1106 (F126C-S121C was placed into the PD-1 arm) and TJ030-PR1108 (F170C-T164C was placed into the PD-1 arm) to co-bind to cells highly expressing human PD-1 and human CTLA-4 after polishing purification was determined by flow cytometry, with CTLA-4 monoclonal antibody and IgG as negative controls. […] Such cross-linking of cells occurred in bispecific antibody molecule incubation only rather than monoclonal antibody or IgG1 incubation.

Binder	proportion of double-positive cells [%]
B4	25.1
B5	30.5
B6	34.7
B7	33.2

These binders were tested against T3, human PD-1 (assay: flow cytometry cell cross-linking (CHO-K1/PD-1 + HEK293/CTLA-4 cells), antibody at 3 nM).
Protocol: as §3, §4

Binder	proportion of double-positive cells [%]
B4	32.2
B5	35.8
B6	37.4
B7	35.3

The binders below were run against T3, human PD-1 (assay: flow cytometry cell cross-linking (CHO-K1/PD-1 + HEK293/CTLA-4 cells), antibody at 10 nM).
Protocol: as §3, §4

Binder	proportion of double-positive cells [%]
B4	32.4
B5	34.8
B6	38.1
B7	37.7

Each binder was assayed against T3, human PD-1 (assay: flow cytometry cell cross-linking (CHO-K1/PD-1 + HEK293/CTLA-4 cells), antibody at 30 nM).
Protocol: as §3, §4

Binder	proportion of double-positive cells [%]
B4	26.7
B5	32.1
B6	33.1
B7	31.4

What follows are binders tested against T3, human PD-1 (assay: flow cytometry cell cross-linking (CHO-K1/PD-1 + HEK293/CTLA-4 cells), antibody at 0.1 nM).
Protocol: as §3, §4

Binder	proportion of double-positive cells [%]
B4	11.8
B5	18.2
B6	19.1
B7	17

What follows are binders tested against T3, human PD-1 (assay: flow cytometry cell cross-linking (CHO-K1/PD-1 + HEK293/CTLA-4 cells), antibody at 0.3 nM).
Protocol: as §3, with “The cells were added to a 96-well U-bottom plate (Costar, 3599) at 2E5 cells/well, and the test antibody was diluted to 100 nM, 10 nM, 1 nM, 0.1 nM and 0.01 nM and added to the 96-well U-bottom plate at 50 μL/well, making a total volume of 150 μL/well.” left out
as §4

Binder	proportion of double-positive cells [%]
B4	20.7
B5	25.3
B6	26.3
B7	24.2

What follows are binders tested against T3, human PD-1 (assay: flow cytometry cell cross-linking (CHO-K1/PD-1 + HEK293/CTLA-4 cells), antibody at 100 nM).
Protocol: as §3, §4

Binder	proportion of double-positive cells [%]
B4	22.2
B5	25.4
B6	23.9
B7	27.2

These binders were tested against T3, human PD-1 (assay: flow cytometry cell cross-linking (CHO-K1/PD-1 + HEK293/CTLA-4 cells), antibody at 0.03 nM).
Protocol: as §3, with “The cells were added to a 96-well U-bottom plate (Costar, 3599) at 2E5 cells/well, and the test antibody was diluted to 100 nM, 10 nM, 1 nM, 0.1 nM and 0.01 nM and added to the 96-well U-bottom plate at 50 μL/well, making a total volume of 150 μL/well.” left out
as §4

Binder	proportion of double-positive cells [%]
B4	8.87
B5	10.4
B6	10.9
B7	11.8

Source: patent US20240010754A1 (JIANGSU HENGRUI MEDICINE, published 2024)
